Biological target: the molecule itself
Experiment: crystal structure; dimeric HT cyt c552 without a His-tag obtained from E. coli by freeze-thaw, purified; sitting-drop vapor diffusion at room temperature; 1.8 Å

B1: Hydrogenobacter thermophilus cytochrome c552, wild type, without a His-tag (holo protein) (natural protein, UniProt P15452 19-98, looked up)
chain: NEQLAKQKGCMACHDLKAKKVGPAYADVAKKYAGRKDAVDYLAGKIKKGGSGVWGSVPMPPQNVTDAEAKQLAQWILSIK
modifications: heme c attached (holo protein)
  stoichiometry N: 2
